According to patent US20120220489A1:

Assays:
[1] = biological target: Histone H3 recombinant protein, human, Upstate 14-494 (human) (UniProt P68431); assay: RPA, normal assay
[2] = biological target: ERK2 (p42), human, Biosource PHO 0104 (human) (UniProt P28482); assay: RPA, normal assay
[3] = biological target: ERK1 (p44) inactive (GST tagged), human, Invitrogen PV 3312 (human) (UniProt P27361); assay: RPA, normal assay
[4] = biological target: Histone H3 recombinant protein, calf, Roche 11 034 758 001 (calf) (UniProt P68432); assay: RPA, normal assay
[5] = biological target: Erk1-BSA 2.7x peptide-protein conjugate (human; bovine); assay: RPA, normal assay
Erk1-BSA 2.7x peptide-protein conjugate (human; bovine), sequence (peptide, as listed by the source limits assumed, chain 1 of 2): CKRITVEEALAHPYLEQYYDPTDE
Erk1-BSA 2.7x peptide-protein conjugate (human; bovine), sequence (P02769 25-607 limits assumed, chain 2 of 2): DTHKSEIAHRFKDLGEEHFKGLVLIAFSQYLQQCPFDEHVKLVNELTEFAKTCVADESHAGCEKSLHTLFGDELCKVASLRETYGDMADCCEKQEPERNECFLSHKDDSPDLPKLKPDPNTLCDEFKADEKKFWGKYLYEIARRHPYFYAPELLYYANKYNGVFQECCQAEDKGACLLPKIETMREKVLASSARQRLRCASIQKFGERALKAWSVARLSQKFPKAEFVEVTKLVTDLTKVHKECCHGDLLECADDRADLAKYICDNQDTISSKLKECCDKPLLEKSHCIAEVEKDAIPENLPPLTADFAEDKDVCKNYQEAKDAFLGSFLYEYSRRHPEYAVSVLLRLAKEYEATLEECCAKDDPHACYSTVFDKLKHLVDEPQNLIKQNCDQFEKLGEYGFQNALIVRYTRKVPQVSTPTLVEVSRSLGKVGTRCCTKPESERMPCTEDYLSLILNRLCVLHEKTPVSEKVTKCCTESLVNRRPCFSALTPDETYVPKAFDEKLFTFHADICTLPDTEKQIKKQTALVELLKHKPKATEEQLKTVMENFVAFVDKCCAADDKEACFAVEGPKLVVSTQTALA

[6] = biological target: ERK1 (p42) active (phospho), human, Active Motif 31 152 (human) (UniProt P27361); assay: RPA, normal assay
[7] = biological target: Histone H3-BSA 2.7x peptide-protein conjugate (bovine); assay: RPA, normal assay
Histone H3-BSA 2.7x peptide-protein conjugate (bovine), sequence (P02769 25-607 limits assumed): as the sequence (P02769 25-607 limits assumed, chain 2 of 2) above

[8] = biological target: pRb-BSA 1x peptide-protein conjugate (bovine); assay: RPA, normal assay
pRb-BSA 1x peptide-protein conjugate (bovine), sequence (P02769 25-607 limits assumed): as the sequence (P02769 25-607 limits assumed, chain 2 of 2) above

[9] = biological target: ERK1 (p44) active (GST tagged), human, Invitrogen PV 3311 (human) (UniProt P27361); assay: RPA, normal assay
[10] = biological target: pRb recombinant protein, human, Active Motif 31 128 (human) (UniProt P06400); assay: RPA, normal assay
UniProt P06400, sequence (P06400 whole entry): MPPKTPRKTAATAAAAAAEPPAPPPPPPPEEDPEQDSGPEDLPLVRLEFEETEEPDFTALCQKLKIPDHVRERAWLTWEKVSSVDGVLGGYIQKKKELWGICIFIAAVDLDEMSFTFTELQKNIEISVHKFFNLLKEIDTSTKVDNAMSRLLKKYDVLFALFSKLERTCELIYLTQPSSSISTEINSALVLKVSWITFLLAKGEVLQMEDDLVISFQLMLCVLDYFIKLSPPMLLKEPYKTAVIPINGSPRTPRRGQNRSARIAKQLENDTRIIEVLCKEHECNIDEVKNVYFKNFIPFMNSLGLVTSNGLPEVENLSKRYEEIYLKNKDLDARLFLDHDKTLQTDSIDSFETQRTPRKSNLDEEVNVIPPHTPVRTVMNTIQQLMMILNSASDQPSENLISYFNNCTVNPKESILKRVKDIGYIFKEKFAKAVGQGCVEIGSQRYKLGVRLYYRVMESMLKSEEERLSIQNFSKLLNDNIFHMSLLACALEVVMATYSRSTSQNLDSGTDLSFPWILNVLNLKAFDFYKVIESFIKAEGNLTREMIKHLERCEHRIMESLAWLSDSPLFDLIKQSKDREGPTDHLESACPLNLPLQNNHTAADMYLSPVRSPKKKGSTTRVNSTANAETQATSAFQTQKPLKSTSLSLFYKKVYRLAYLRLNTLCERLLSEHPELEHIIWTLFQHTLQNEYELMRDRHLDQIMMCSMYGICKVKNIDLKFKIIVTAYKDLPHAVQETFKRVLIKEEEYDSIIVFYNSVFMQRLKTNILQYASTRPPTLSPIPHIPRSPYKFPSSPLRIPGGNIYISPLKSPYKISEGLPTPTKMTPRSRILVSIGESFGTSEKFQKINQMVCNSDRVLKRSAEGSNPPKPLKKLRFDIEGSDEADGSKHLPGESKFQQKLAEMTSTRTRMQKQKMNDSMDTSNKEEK

[11] = biological target: ERK1 (p44), human, Cell Signaling Technology 7416 (human) (UniProt P27361); assay: RPA, normal assay
[12] = biological target: pErk1/2-BSA 2.7x peptide-protein conjugate (human; bovine); assay: RPA, competition: +recombinant protein 100 nM (not named)
pErk1/2-BSA 2.7x peptide-protein conjugate (human; bovine), sequence (P02769 25-607 limits assumed): as the sequence (P02769 25-607 limits assumed, chain 2 of 2) above

[13] = biological target: Histone H3 recombinant protein, human, Upstate 14-494 (human) (UniProt P68431); assay: as above
[14] = biological target: ERK2 (p42), human, Biosource PHO 0104 (human) (UniProt P28482); assay: as above
[15] = biological target: ERK1 (p44) inactive (GST tagged), human, Invitrogen PV 3312 (human) (UniProt P27361); assay: as above
[16] = biological target: Histone H3 recombinant protein, calf, Roche 11 034 758 001 (calf) (UniProt P68432); assay: as above
[17] = biological target: Erk1-BSA 2.7x peptide-protein conjugate (human; bovine); assay: as above
[18] = biological target: ERK1 (p42) active (phospho), human, Active Motif 31 152 (human) (UniProt P27361); assay: as above
[19] = biological target: Histone H3-BSA 2.7x peptide-protein conjugate (bovine); assay: as above
[20] = biological target: pRb-BSA 1x peptide-protein conjugate (bovine); assay: as above
[21] = biological target: ERK1 (p44) active (GST tagged), human, Invitrogen PV 3311 (human) (UniProt P27361); assay: as above
[22] = biological target: pRb recombinant protein, human, Active Motif 31 128 (human) (UniProt P06400); assay: as above
[23] = biological target: ERK1 (p44), human, Cell Signaling Technology 7416 (human) (UniProt P27361); assay: as above
[24] = biological target: pErk1/2-BSA 2.7x peptide-protein conjugate (human; bovine); assay: RPA, competition: +free Erk1 peptide 1000 nM
[25] = biological target: Histone H3 recombinant protein, human, Upstate 14-494 (human) (UniProt P68431); assay: RPA, competition: +free Erk1 peptide 1000 nM
[26] = biological target: ERK2 (p42), human, Biosource PHO 0104 (human) (UniProt P28482); assay: RPA, competition: +free Erk1 peptide 1000 nM
[27] = biological target: ERK1 (p44) inactive (GST tagged), human, Invitrogen PV 3312 (human) (UniProt P27361); assay: RPA, competition: +free Erk1 peptide 1000 nM
[28] = biological target: Histone H3 recombinant protein, calf, Roche 11 034 758 001 (calf) (UniProt P68432); assay: RPA, competition: +free Erk1 peptide 1000 nM
[29] = biological target: Erk1-BSA 2.7x peptide-protein conjugate (human; bovine); assay: RPA, competition: +free Erk1 peptide 1000 nM
[30] = biological target: ERK1 (p42) active (phospho), human, Active Motif 31 152 (human) (UniProt P27361); assay: RPA, competition: +free Erk1 peptide 1000 nM
[31] = biological target: Histone H3-BSA 2.7x peptide-protein conjugate (bovine); assay: RPA, competition: +free Erk1 peptide 1000 nM
[32] = biological target: pRb-BSA 1x peptide-protein conjugate (bovine); assay: RPA, competition: +free Erk1 peptide 1000 nM
[33] = biological target: ERK1 (p44) active (GST tagged), human, Invitrogen PV 3311 (human) (UniProt P27361); assay: RPA, competition: +free Erk1 peptide 1000 nM
[34] = biological target: pRb recombinant protein, human, Active Motif 31 128 (human) (UniProt P06400); assay: RPA, competition: +free Erk1 peptide 1000 nM
[35] = biological target: ERK1 (p44), human, Cell Signaling Technology 7416 (human) (UniProt P27361); assay: RPA, competition: +free Erk1 peptide 1000 nM

UniProt P28482, sequence (P28482 2-360 limits assumed): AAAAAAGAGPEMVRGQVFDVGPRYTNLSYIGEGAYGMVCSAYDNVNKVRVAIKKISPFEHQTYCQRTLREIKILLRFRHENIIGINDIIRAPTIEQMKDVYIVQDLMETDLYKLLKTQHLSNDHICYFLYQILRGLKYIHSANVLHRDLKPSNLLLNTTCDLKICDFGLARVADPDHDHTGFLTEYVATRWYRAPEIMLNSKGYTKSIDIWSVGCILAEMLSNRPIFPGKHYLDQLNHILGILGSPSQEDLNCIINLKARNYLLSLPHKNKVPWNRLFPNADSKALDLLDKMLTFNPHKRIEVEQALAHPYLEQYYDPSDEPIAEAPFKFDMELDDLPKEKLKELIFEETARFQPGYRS

Row | Substance | maximum standard curve signal [2] [RFI] | maximum standard curve signal [3] [RFI] | maximum standard curve signal [5] [RFI] | maximum standard curve signal [6] [RFI] | maximum standard curve signal [7] [RFI] | maximum standard curve signal [8] [RFI] | maximum standard curve signal [9] [RFI] | maximum standard curve signal [11] [RFI] | maximum standard curve signal [12] [RFI] | maximum standard curve signal [13] [RFI] | maximum standard curve signal [14] [RFI] | maximum standard curve signal [15] [RFI] | maximum standard curve signal [16] [RFI] | maximum standard curve signal [17] [RFI] | maximum standard curve signal [18] [RFI] | maximum standard curve signal [19] [RFI] | maximum standard curve signal [20] [RFI] | maximum standard curve signal [21] [RFI] | maximum standard curve signal [22] [RFI] | maximum standard curve signal [23] [RFI] | further results
1 | p44/42 MAPK (Erk1/2) antibody, Cell Signaling Technology #4695, rabbit monoclonal | 1.51 | 7.12 | 2.77 | 0.22 | 0.01 | 0.01 | 5.17 | 0.04 | 0.09 | 0.1 | 0.16 | 0.59 | 0.08 | 0.29 | 0.11 | 0.12 | 0.1 | 0.39 | 0.09 | 0.1 | maximum standard curve signal [1]: 0.01 RFI; maximum standard curve signal [4]: 0.01 RFI; maximum standard curve signal [10]: 0.01 RFI; maximum standard curve signal [24]: 0.01 RFI; maximum standard curve signal [25]: < 0.01 RFI; maximum standard curve signal [26]: 0.01 RFI; maximum standard curve signal [27]: 0.04 RFI; maximum standard curve signal [28]: < 0.01 RFI; maximum standard curve signal [29]: 0.01 RFI; maximum standard curve signal [30]: < 0.01 RFI; maximum standard curve signal [31]: 0.01 RFI; maximum standard curve signal [32]: 0.01 RFI; maximum standard curve signal [33]: 0.02 RFI; maximum standard curve signal [34]: < 0.01 RFI; maximum standard curve signal [35]: < 0.01 RFI
2 | p44/42 MAPK (Erk1/2) antibody, Cell Signaling Technology #9102, rabbit polyclonal | 1.51 | 8.96 | 2.44 | 0.36 | 0.08 | 0.01 | 7.2 | 0.05 | 0.04 | 0.03 | 0.07 | 0.19 | 0.03 | 0.12 | 0.03 | 0.1 | 0.04 | 0.11 | 0.04 | 0.03 | maximum standard curve signal [24]: 0.01 RFI; maximum standard curve signal [25]: < 0.01 RFI; maximum standard curve signal [26]: 0.91 RFI; maximum standard curve signal [27]: 7.28 RFI; maximum standard curve signal [28]: < 0.01 RFI; maximum standard curve signal [29]: 0.06 RFI; maximum standard curve signal [30]: 0.23 RFI; maximum standard curve signal [31]: 0.07 RFI; maximum standard curve signal [32]: 0.01 RFI; maximum standard curve signal [33]: 4.65 RFI; maximum standard curve signal [34]: < 0.01 RFI; maximum standard curve signal [35]: 0.03 RFI
